Test results: patent US20090280138A1 (OXFORD BIOMEDICA UK, published 2009)

What was measured:
[1] = biological target: T1, MHC class I molecule HLA-A*0301 (iTopia plate-bound monomer) (biotin (bound to streptavidin-coated plate)); test: iTopia off-rate assay, 37 C; fit R^2 0.64
T1 construct: also called A3
Protocol: (§1) The 9 mers were tested for Peptide Binding, Off Rate and Affinity using iTopia Epitope Discovery System in accordance with the manufacturer's instructions. Briefly, 96 well microtitre plates coated with MHC molecules representing different MHC alleles are used to identify candidate peptides. […] Determinations are performed in duplicate using an ELISA plate reader and included allele specific positive controls.
(§2) A one-phase exponential decay curve, with a plateau given equal to 0, was generated using GraphPad Prism® software, which calculated the t1/2 and goodness-of-fit, as measured by r², for each peptide.

[2] = biological target: T2, MHC class I molecule HLA-B*0702 (iTopia plate-bound monomer) (biotin (bound to streptavidin-coated plate)); test: iTopia off-rate assay, 37 C; fit R^2 0.82
T2 construct: Commercial iTopia system; also called B7
Protocol: as §1, §2

[3] = biological target: T3, MHC class I molecule HLA-A*0201 (iTopia plate-bound monomer) (biotin (bound to streptavidin-coated plate)); test: iTopia off-rate assay, 37 C; fit R^2 0.42
T3 construct: also called A2
Protocol: as §1, §2

[4] = biological target: T4, MHC class I molecule HLA-A*0101 (iTopia plate-bound monomer) (biotin (bound to streptavidin-coated plate)); test: iTopia off-rate assay, 37 C; fit R^2 0.15
T4 construct: also called A1
Protocol: as §1, §2

[5] = biological target: T1, MHC class I molecule HLA-A*0301 (iTopia …); test: iTopia off-rate assay, 37 C; fit R^2 0.96
Protocol: as §1, §2

[6] = biological target: T2, MHC class I molecule HLA-B*0702 (iTopia …); test: iTopia off-rate assay, 37 C; fit R^2 0.86
Protocol: as §1, §2

[7] = biological target: T3, MHC class I molecule HLA-A*0201 (iTopia …); test: iTopia off-rate assay, 37 C; fit R^2 0.97
Protocol: as §1, §2

[8] = biological target: T2, MHC class I molecule HLA-B*0702 (iTopia …); test: iTopia off-rate assay, 37 C; fit R^2 0
Protocol: as §1, §2

[9] = biological target: T2, MHC class I molecule HLA-B*0702 (iTopia …); test: iTopia off-rate assay, 37 C; fit R^2 0.1
Protocol: as §1, §2

[10] = biological target: T3, MHC class I molecule HLA-A*0201 (iTopia …); test: iTopia off-rate assay, 37 C; fit R^2 0.79
Protocol: as §1, §2

[11] = biological target: T3, MHC class I molecule HLA-A*0201 (iTopia …); test: iTopia off-rate assay, 37 C; fit R^2 0.81
Protocol: as §1, §2

[12] = biological target: T2, MHC class I molecule HLA-B*0702 (iTopia …); test: iTopia off-rate assay, 37 C; fit R^2 0.81
Protocol: as §1, §2

[13] = biological target: T2, MHC class I molecule HLA-B*0702 (iTopia …); test: iTopia off-rate assay, 37 C; fit R^2 0.67
Protocol: as §1, §2

[14] = biological target: T3, MHC class I molecule HLA-A*0201 (iTopia …); test: iTopia off-rate assay, 37 C; fit R^2 0.87
Protocol: as §1, §2

[15] = biological target: T1, MHC class I molecule HLA-A*0301 (iTopia …); test: iTopia off-rate assay, 37 C; fit R^2 0.99
Protocol: as §1, §2

[16] = biological target: T2, MHC class I molecule HLA-B*0702 (iTopia …); test: iTopia off-rate assay, 37 C; fit R^2 0.73
Protocol: as §1, §2

[17] = biological target: T4, MHC class I molecule HLA-A*0101 (iTopia …); test: iTopia off-rate assay, 37 C; fit R^2 0.12
Protocol: as §1, §2

[18] = biological target: T3, MHC class I molecule HLA-A*0201 (iTopia …); test: iTopia off-rate assay, 37 C; fit R^2 0.2
Protocol: as §1, §2

[19] = biological target: T2, MHC class I molecule HLA-B*0702 (iTopia …); test: iTopia off-rate assay, 37 C; fit R^2 0.76
Protocol: as §1, §2

[20] = biological target: T3, MHC class I molecule HLA-A*0201 (iTopia …); test: iTopia off-rate assay, 37 C; fit R^2 0.58
Protocol: as §1, §2

[21] = biological target: T2, MHC class I molecule HLA-B*0702 (iTopia …); test: iTopia off-rate assay, 37 C; fit R^2 0.95
Outline: (§3)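 First, 9-mer peptides were applied to plates coated with MHC alleles. Next, binding was read by ELISA reader in duplicate alongside allele-specific positive controls. Finally, the decay data were fitted (one-phase exponential, plateau 0) to obtain half-life and r².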

[22] = biological target: T1, MHC class I molecule HLA-A*0301 (iTopia …); test: iTopia off-rate assay, 37 C; fit R^2 0.61
Protocol: as §1, §2

[23] = biological target: T3, MHC class I molecule HLA-A*0201 (iTopia …); test: iTopia off-rate assay, 37 C; fit R^2 0.95
Outline: as §3

[24] = biological target: T2, MHC class I molecule HLA-B*0702 (iTopia …); test: iTopia off-rate assay, 37 C; fit R^2 0.68
Protocol: as §1, §2

[25] = biological target: T2, MHC class I molecule HLA-B*0702 (iTopia …); test: iTopia off-rate assay, 37 C; fit R^2 0.87
Protocol: as §1, §2

[26] = biological target: T3, MHC class I molecule HLA-A*0201 (iTopia …); test: iTopia off-rate assay, 37 C; fit R^2 0.26
Protocol: as §1, §2

[27] = biological target: T3, MHC class I molecule HLA-A*0201 (iTopia …); test: iTopia off-rate assay, 37 C; fit R^2 0.3
Protocol: as §1, §2

[28] = biological target: T4, MHC class I molecule HLA-A*0101 (iTopia …); test: iTopia off-rate assay, 37 C; fit R^2 0.76
Protocol: as §1, §2

[29] = biological target: T1, MHC class I molecule HLA-A*0301 (iTopia …); test: iTopia off-rate assay, 37 C; fit R^2 0.84
Protocol: as §1, §2

[30] = biological target: T3, MHC class I molecule HLA-A*0201 (iTopia …); test: iTopia off-rate assay, 37 C; fit R^2 0.02
Protocol: as §1, §2

[31] = biological target: T2, MHC class I molecule HLA-B*0702 (iTopia …); test: iTopia off-rate assay, 37 C; fit R^2 0.94
Outline: as §3

[32] = biological target: T3, MHC class I molecule HLA-A*0201 (iTopia …); test: iTopia off-rate assay, 37 C; fit R^2 0.9
Outline: as §3

[33] = biological target: T3, MHC class I molecule HLA-A*0201 (iTopia …); test: iTopia off-rate assay, 37 C; fit R^2 0.11
Protocol: as §1, §2

[34] = biological target: T3, MHC class I molecule HLA-A*0201 (iTopia …); test: iTopia off-rate assay, 37 C; fit R^2 0.46
Protocol: as §1, §2

[35] = biological target: T3, MHC class I molecule HLA-A*0201 (iTopia …); test: iTopia off-rate assay, 37 C; fit R^2 0.77
Protocol: as §1, §2

[36] = biological target: T1, MHC class I molecule HLA-A*0301 (iTopia …); test: iTopia off-rate assay, 37 C; fit R^2 0.97
Protocol: as §1, §2

[37] = biological target: T4, MHC class I molecule HLA-A*0101 (iTopia …); test: iTopia off-rate assay, 37 C; fit R^2 0.18
Protocol: as §1, §2

[38] = biological target: T3, MHC class I molecule HLA-A*0201 (iTopia …); test: iTopia off-rate assay, 37 C; fit R^2 0.72
Protocol: as §1, §2

[39] = biological target: T2, MHC class I molecule HLA-B*0702 (iTopia …); test: iTopia off-rate assay, 37 C; fit R^2 0.38
Protocol: as §1, §2

[40] = biological target: T3, MHC class I molecule HLA-A*0201 (iTopia …); test: iTopia off-rate assay, 37 C; fit R^2 0.75
Protocol: as §1, §2

[41] = biological target: T1, MHC class I molecule HLA-A*0301 (iTopia …); test: iTopia off-rate assay, 37 C; fit R^2 0.01
Protocol: as §1, §2

[42] = biological target: T3, MHC class I molecule HLA-A*0201 (iTopia …); test: iTopia off-rate assay, 37 C; fit R^2 0.76
Protocol: as §1, §2

[43] = biological target: T2, MHC class I molecule HLA-B*0702 (iTopia …); test: iTopia off-rate assay, 37 C; fit R^2 0.26
Protocol: as §1, §2

B1: 5T4 9-mer peptide 142 GLPHIRVFL (peptide)
peptide: GLPHIRVFL
notes: also called Peptide No 142
[1]
  t½ half life: 6 h
[2]
  t½ half life: 0.9 h
[3]
  t½ half life: 12.9 h

B2: 5T4 9-mer peptide 109 LASNHFLYL (peptide)
peptide: LASNHFLYL
[4]
  t½ half life: 3 h
[5]
  t½ half life: 3.6 h
[6]
  t½ half life: 0.2 h
[7]
  t½ half life: 1.3 h

B3: 5T4 9-mer peptide 126 YVSFRNLTH (peptide)
peptide: YVSFRNLTH
notes: also called Peptide No 126
[5]
  t½ half life: 0.9 h
[8]
  t½ half life: 2.6 h

B4: 5T4 9-mer peptide 101 AALLAGRAL (peptide)
peptide: AALLAGRAL
[9]
  t½ half life: 1.6 h
[10]
  t½ half life: 1.9 h

B5: 5T4 9-mer peptide 117 LPSLRHLDL (peptide)
peptide: LPSLRHLDL
notes: also called Peptide No 117
[11]
  t½ half life: 0.7 h
[12]
  t½ half life: 3 h

B6: 5T4 9-mer peptide 84 ASVSAPSPL (peptide)
peptide: ASVSAPSPL
notes: also called Peptide No 84
[13]
  t½ half life: 6 min
[14]
  t½ half life: 0.4 h

B7: 5T4 9-mer peptide 125 LTYVSFRNL (peptide)
peptide: LTYVSFRNL
[15]
  t½ half life: 0.7 h
[16]
  t½ half life: 6 h
[17]
  t½ half life: 3.9 h
[18]
  t½ half life: 8.1 h

B8: 5T4 9-mer peptide 163 YPEKMRNRV (peptide)
peptide: YPEKMRNRV
notes: also called Peptide No 163
[19]
  t½ half life: 1.9 h

B9: 5T4 9-mer peptide 137 LHNGTLAEL (peptide)
peptide: LHNGTLAEL
notes: also called Peptide No 137
[20]
  t½ half life: 4.2 h
[21]
  t½ half life: 0.3 h

B10: 5T4 9-mer peptide 104 RALQGLRRL (peptide)
peptide: RALQGLRRL
[22]
  t½ half life: 0.4 h
[23]
  t½ half life: 0.6 h
[24]
  t½ half life: 6 min

B11: 5T4 9-mer peptide 113 LPRDVLAQL (peptide)
peptide: LPRDVLAQL
[25]
  t½ half life: 3.3 h

B12: 5T4 9-mer peptide 179 VFLGIVLAL (peptide)
peptide: VFLGIVLAL
notes: also called Peptide No 179
[26]
  t½ half life: 15 h

B13: 5T4 9-mer peptide 164 EKMRNRVLL (peptide)
peptide: EKMRNRVLL
[27]
  t½ half life: 7 h

B14: 5T4 9-mer peptide 177 QTSYVFLGI (peptide)
peptide: QTSYVFLGI
notes: also called Peptide No 177
[14]
  t½ half life: 0.6 h
[28]
  t½ half life: 0.2 h

B15: 5T4 9-mer peptide 183 LIGAIFLLV (peptide)
peptide: LIGAIFLLV
notes: also called Peptide No 183
[29]
  t½ half life: 0.5 h
[30]
  t½ half life: 19.4 h

B16: 5T4 9-mer peptide 182 LALIGAIFL (peptide)
peptide: LALIGAIFL
notes: also called Peptide No 182
[31]
  t½ half life: 0.5 h
[32]
  t½ half life: 3.2 h

B17: 5T4 9-mer peptide 157 EVVQGKDRL (peptide)
peptide: EVVQGKDRL
[33]
  t½ half life: 11 h

B18: 5T4 9-mer peptide 90 ILNHIVPPE (peptide)
peptide: ILNHIVPPE
notes: also called Peptide No 90
[34]
  t½ half life: 13 h

B19: 5T4 9-mer peptide 115 VLAQLPSLR (peptide)
peptide: VLAQLPSLR
[35]
  t½ half life: 0.6 h
[36]
  t½ half life: 0.2 h

B20: 5T4 9-mer peptide 161 LTCAYPEKM (peptide)
peptide: LTCAYPEKM
notes: also called Peptide No 161
[37]
  t½ half life: 3.7 h
[38]
  t½ half life: 3.1 h

B21: 5T4 9-mer peptide 121 LSNNSLVSL (peptide)
peptide: LSNNSLVSL
[39]
  t½ half life: 4.1 h
[40]
  t½ half life: 0.8 h

B22: 5T4 9-mer peptide 100 VVAALLAGR (peptide)
peptide: VVAALLAGR
notes: also called Peptide No 100
[41]
  t½ half life: 8.1 h

B23: 5T4 9-mer peptide 120 LDLSNNSLV (peptide)
peptide: LDLSNNSLV
notes: also called Peptide No 120
[42]
  t½ half life: 3.4 h

B24: 5T4 9-mer peptide 86 APSPLVELI (peptide)
peptide: APSPLVELI
notes: also called Peptide No 86
[43]
  t½ half life: 1.6 h
